± gives the uncertainty stated by the source.

The nature of this series: amyloid nucleation score (Sup35N fusion, yeast selection) (log enrichment); library NNK1; higher = more nucleation; inactive = no reads after selection. The method in brief: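 Plasmid inserts were Illumina-sequenced at input and output from psi-negative yeast expressing Sup35N fused to peptides of 20 random codons. The yeast were induced with 100 μM copper sulfate for 24 hours and grown 7 days at 30°C on medium lacking adenine and uracil, and sequences with under 100 input reads were excluded. Nucleation score is the DiMSum log enrichment of output over input reads, centred on the mode score of non-aggregating sequences.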
As to SVYSVAFR, the amyloid nucleation score came to 0.184 ± 0.78.

The substance MHWLDYSFELLDGQ gave an amyloid nucleation score of 1.01 ± 0.75. The value for FKNLCRAVS was 0.059 ± 0.53; that for EGVHNSRKVEPGVKFGSGAR was 0.621 ± 1; that for QNPLMRNYNPRFCHCGLSAP was “inactive”. Turning to NMNNGDMSSVVVVIRVFCLI, the amyloid nucleation score came to 5.38 ± 0.093.

Regarding HKCVLELFSLIFLGGYFFLR, the amyloid nucleation score amounted to 0.041 ± 0.45. For the substance CLYVTPYMLFYLLVSNGTEC, the amyloid nucleation score was -1 ± 0.35.

In the case of NRISALWSTMLWFAY, the amyloid nucleation score is -0.008 ± 0.27. For VFILALVELFGVQWLVVYNW, the amyloid nucleation score was -0.42 ± 0.47. CRKFQWLSLM: the amyloid nucleation score is -0.921 ± 1.7. As for WDYSRLLFAYNKIVTERNNG, the amyloid nucleation score is -0.356 ± 0.29. PQVVRRGTHKVGRDNG returned an amyloid nucleation score of 0.186 ± 1.6. DRFVVVLCFTDQ: the amyloid nucleation score came to 0.452 ± 0.46. As for SDSEGYLVEGWY, the amyloid nucleation score stood at 0.882 ± 0.87.

In turn, VVAGNSAKEIYKFTGADTPY showed an amyloid nucleation score of -0.751 ± 0.57. The same measure for GNFMRLRWNVKFL: -0.016 ± 0.72; for DYRYTNCCWQSPKRRGWQSY: 0.967 ± 0.59. Consider IRNIRRI, for which the amyloid nucleation score was -0.262 ± 0.28. RFSGVFSDQLVLSD showed an amyloid nucleation score of -0.713 ± 0.68. Substance RRQYFN gave an amyloid nucleation score of -0.855 ± 0.45. TLDLTHNLCLG: the amyloid nucleation score amounted to 0.491 ± 0.37. The same measure for GHAEIYMWTLGIPSRLFGAI: 0.049 ± 0.45; for LCDFKTSEVPSEGTFWSVLA: 0.181 ± 0.51; for IYMCIGWQ: 7.268 ± 0.044.

As for SSRYLSDSIKLAGWSIT, the amyloid nucleation score is -1.39 ± 2.4. For the substance YDFVIFLGHDACEIYCFLRS, the amyloid nucleation score was 0.935 ± 0.56.

SADSGSQSEEQSKVMRMVYG yielded an amyloid nucleation score of -1.64 ± 0.83.

In the case of SNCGWRIFKEM, the amyloid nucleation score is -1.35 ± 2.1. The value for GRTHEEYF was 0.048 ± 1.2; that for CSAMPAFWAGHRSGASLHER was 0.017 ± 0.4; that for AGLRIYVVSFILTYGKRFSS was 0.12 ± 0.4. AIVNMVLIHKERTVSVLIRA had an amyloid nucleation score of -0.296 ± 0.58. The value for ISGSHFVSLPV was 0.518 ± 0.38. In turn, CRSSSERSIFG had an amyloid nucleation score of 0.439 ± 0.53. For the substance ISWQAVTSRGTCNN, the amyloid nucleation score is -1.01 ± 0.68.

Turning to RSFSCLSQVFTYVPLTVRET, the amyloid nucleation score came to 0.22 ± 0.6.

On to HFVGMMMKSGGFARLTYNKG, for which the amyloid nucleation score is 0.443 ± 0.45. The value for TMVVNLARRAPPVLPSGRMT was 0.71 ± 0.74; that for FGWLKPR was 0.994 ± 0.49.

For SSINMVVSPK, the amyloid nucleation score worked out at 1.09 ± 0.3. Substance FHGLSGMRYWTRFCMWSPAC returned an amyloid nucleation score of 1.36 ± 0.66. SLSLIVVKNGIFLVH came in with an amyloid nucleation score of 3.16 ± 0.12. As for MILWPS, the amyloid nucleation score stood at 1.64 ± 0.16. The value for KRVCLFLGSWNRHHLLGLFG was 1.41 ± 0.84; that for SLPRSSIRYRFQCVRLESVM was -0.601 ± 0.47. In turn, LLCLLYHAGGTKRGYTTWAS came in with an amyloid nucleation score of -0.133 ± 1.2.

As for TSINGYSVAKSGGSMYCIGM, the amyloid nucleation score is -0.194 ± 0.67. Consider YYIRNYVRFRRS, for which the amyloid nucleation score is -0.797 ± 0.48.

RVTYETNGLWGKNVRYDIVN came in with an amyloid nucleation score of 0.305 ± 0.34. Substance PYLGHR came in with an amyloid nucleation score of -1.55 ± 1.4.

As to IIVFGSLEELVGAGLLGRLR, the amyloid nucleation score is -0.106 ± 1.7. Regarding FWAHMMRIASNYKFSLYL, the amyloid nucleation score result was “inactive”.

Take WGPRSVNGTLRI: the amyloid nucleation score was -0.488 ± 0.32.

ILSRCVC displayed an amyloid nucleation score of 0.608 ± 0.37. For LFGDLTNFQTFYT, the amyloid nucleation score result was “inactive”. Take GRTVPDYLMVRSATNIRYGF: the amyloid nucleation score is -1.19 ± 1.7. On to RSTKKFSPQDTPHSLHVKKG, for which the amyloid nucleation score came out at 0.574 ± 0.42.

Turning to RLNRVSVLLFPTFDLPPFLE, the amyloid nucleation score is 2.68 ± 0.098.

With AIDRVSYHVKVVRGHINSKF, the amyloid nucleation score entry is “inactive”. CTWWSMWNNNWDKFLTREQL: the amyloid nucleation score stood at 0.19 ± 1.1.

For the substance YISLRFISYYYYVRGKFYMK, the amyloid nucleation score worked out at 0.672 ± 0.56. For YVWVGADDFFYRGYVFSRLV, the amyloid nucleation score is -0.212 ± 1.4. Substance KYRVSLNFRWRFRLMISHNG came in with an amyloid nucleation score of -0.002 ± 0.4. The value for DMCNLTRLPLVYFM was -0.037 ± 1.7; that for SYLGTHRFTECILDRVCTLQ was 0.125 ± 1.4; that for LHRITYLCSNVYSVCGLVCA was 4.35 ± 0.079. With GFFVQNRTWQIH, the amyloid nucleation score was -0.858 ± 0.45. SKCRL came in with an amyloid nucleation score of 1.92 ± 0.62. On to LDLVTGL, for which the amyloid nucleation score came out at 1.1 ± 0.66. The value for MAPRFIDVMQ was -0.94 ± 0.97; that for CRLCVLCAMYGI was 0.939 ± 0.26. The substance ALCVWQRLSRLLLDTPWHVR registered an amyloid nucleation score of 0.806 ± 0.69. GHGWITMVTDCR: the amyloid nucleation score worked out at 1.87 ± 0.4. QSGVNNTVLVCIVQSFSSLM had an amyloid nucleation score of 5.5 ± 0.082. ELSVRPCRVLYEHCGYRCEQ showed an amyloid nucleation score of 0.196 ± 0.49. As to QYMKLGFNPCKTMVVLFLCC, the amyloid nucleation score was determined as 4.16 ± 0.062. Regarding WHPYYIQVKGILALLSSVHH, the amyloid nucleation score turned out to be 3.18 ± 0.073. As to LDRYVRFEIRS, the amyloid nucleation score is 0.661 ± 0.56. Substance TTSPGSNSRDPAGMMIT had an amyloid nucleation score of 0.38 ± 0.32.

On to LSTTKAIALSYLYGQNVKWS, for which the amyloid nucleation score worked out at 0.092 ± 0.21. In turn, FHDLTQSCVCGSM gave an amyloid nucleation score of 0.717 ± 0.49. The substance IMVHWMIYCGRMYLHCSSIV had an amyloid nucleation score of 0.086 ± 0.97. In turn, ELFASTCGFYALHRLGSRPG gave an amyloid nucleation score of 3.04 ± 0.092. TDFMFFWGDFMVTYTAVVCR registered an amyloid nucleation score of -0.096 ± 0.44. As for CMVMLGSEQKFYMVVRPLKI, the amyloid nucleation score is -0.085 ± 0.41. As to NFNFFRRCLGSPYNRPEWID, the amyloid nucleation score is -0.066 ± 0.42. The value for IMTPIRGNN was 0.209 ± 0.34; that for SVRVMVLFWIKHCRLLWGRH was -0.405 ± 1.7. The same measure for RNGSSMGPLSM: -0.258 ± 0.71; for NSPRPSLLCCPCGKAYLHFR: -0.282 ± 1.2. The value for TISILCQYQVMGTIFIYVVQ was 1.66 ± 0.13; that for LQASLGNDPSSVRVSSRGNW was -0.468 ± 0.54.

The substance WYNGNKSHGRRVPGVQPRAL gave an amyloid nucleation score of -0.046 ± 0.46. The value for TTSFRHSVYQDYGLSVIDCG was -0.351 ± 0.78; that for CWVETLTICACLTFTFFFWN was 2.48 ± 0.14; that for TWLTRYLPLNEFRMG was 0.776 ± 0.36.

Substance NFMEYYKIRVMCWANR gave an amyloid nucleation score of 0.616 ± 0.29.

In turn, CKEINL showed an amyloid nucleation score of -0.374 ± 0.6. The same measure for TVRKDGNTRSFFSSLRMQAS: -0.654 ± 0.3. The substance SVSLTNGVAEADKRYASAWL yielded an amyloid nucleation score of -0.093 ± 0.31.

The substance TMLMESTIRRRC displayed an amyloid nucleation score of -0.021 ± 0.54.

On to HESLWKFESSFADKNRTVWN, for which the amyloid nucleation score worked out at 1.32 ± 0.45.

With WYVFLYFGCEKAMALSTNMT, the amyloid nucleation score result was “inactive”.
